Measurements reported in the DeepSol protein solubility set.

Assay: soluble on expression in E. coli; label from the status in PepcDB or PDB records

Sequence | soluble on expression in E. coli
EFVGRGIGNSVREDLSFNLLLSSDMDETQAQELQRQIAATPFVKDVSYISADQALEEMKKELGEDDPAKMLGYNPLQAEMCVHLKAQYTHPDSLKTIDSAIRTWNGVDNLEYRADMFDIVHRNTRR | not soluble
ETEPGHALVIWHDSTNEYYTMQQLTLAYEESRLLFEKAPQGIAMLDPSGEIVMANRSFGDLVGTTPVRLLGRNLEDFGVEEGTMEYVTPVLSDPEAVVHLDRSLETLRGKQKNVAMSFSSMGNVG | not soluble
MGSDKIHHHHHHMFTLYERKNRQKSNVNIFVMNYVTNLTKENLAGERIGVFFGTFAPLHVGHQAEIYKAAALNDGVLVVTSGYTGDRGEQIGLPLRKRFRYLRQAFADEWQIKVDYLNEDGIPKMPDGWDVWLDKLLGIIKRNIVNKNAKITFYTGEPDYKKEIEKRLGDNPQFRVSLMDRTILNISATKIRKEPLKYWDYINRVFRRHFVQKVVVMGSSNSGKSTLIRRLARSANSPFSDDFAAIYQEESNVADSEMDIKDYSNIIQGQYQANSLEINSPANNGLAIFNGDAISLQAYSNLLLNQDERLQLKHLYNTIISAEEFDLILVIPPFSDPRRKVIRFTGAAIDPVAYYQELIRLIDFYGFSDKMVVLNAKNQTDDPAGYYARYLQALDAIEKYTSFDIEHHR | not soluble
MGSDKIHHHHHHMNWDDVRIFLAVARAGQILGAARRLELNHATVSRRIAALEDALRTKLFRRLTTGSELTPAGERFLDIAERMEGEMIAARSTISGEGDDISGTVRIGAPDGFGVAFLARRLGELTALHRELTIQLVPVPRSFSLSRREADIAITVERPTEGRLVAGKLVDYSLGLFASRAYADANGLPKTAAELGRHPLIGYVPDLIVSPSLDYAAEFSADWRTSFAISSALGQAEAVRSGAGIGILHTFVARSMPELVAVDAVAPIRRAYWLVYHESVRPLRRIQIVAGFITKAVERERSLFL | not soluble
MDDLEGKKCIGCQKPAKLRCPTCIKMSLPDAYFCDQSCFKAFWPIHKFSHSDVNGPYNPWPCYSFTGSLRPGRVTDRRPVPDHIPRPDYALHPQGVSLEERQSKSERVIKVLTDEEKEGLKVACKLGRECLNEAAKACGPGVTTEEIDRVVHEAAIERDCYPSPLGYYKFPKSCCTSVNEVICHGIPDMRKLENGDLCNVDVTVYHRGFHGDLNETFLVGDKVDEESRKLVKVTFECLQQAIAIVKPGVKFREIGNVIQKHANANGFSVVKGYCGHGIHRLFHTAPNVPHYAKNNATGVMKAGNSFTIEPMINAGTYHDDKWPDDWTAVTRDGRRSAQFEQTLLVTDTGCEILTKRDGNRPWFMDQIEQSY | soluble
MSLTESESGGDTMMAAVLDVLPHGRPGDDRPQHQKEPLAYALDIDEFYIYELQLADKDADIAFGDRIDLTEFGRVTEVEFEDIPSGARSELDYAVEEVVEANEQRFVDFYNDAQPITLRLHQLNLLPGIGKKLRNTILDERKRKPFESFEDLEKRVSGLHSPKETLVERILEELQDDDLKYRLFVRREEQSSEGHHHHHH | soluble
SLSRYLLTDSPAVCVLSGERGVGTTTVLKRILNKTKNAVPIYINCPYDGYAALLPELAQLLGLDAESSEKDILQHLRNSEQCYLIAFDNAQRLVKPKVNGLVELMKLTNLLRRARKSHRVVLSIDKSSWRFIDRARGERLLFDLVTFMP | not soluble
DKEWNEKELQKLHCAFASLPKHKPGFWSEVAAAVGSRSPEECQRKYMENPRGKGSQKHVT | soluble
MSLGETYAPQCAGPAPEPRTLPRTLPDGACDCHFHVFGDENGQPFSPHRSYTPPPAPLEAFQRVQKTLGLSRGVIVQPSVYGADNSTTLAALKEAGSAFRGVVVIDADTDTETLWAMHRLGVRGVRVNLIFKSGVEVSDVAALAEKVAPLGWHLQLLIDITEFADLYETVASLPVAVVIDHMGHMPTSCGLGHPGFTDLLRLLKEGRVWVKLSGAYRFTASKDFPYDDVTPYARALIEANPNRLLWASDWPHPCIPVPMPNDASLLEMLFNWVENDDALIKQILVDNPAKLYGEGHHHHHH | not soluble
MGSDKIHHHHHHMVEAQRVKEDEDAIRQALASLKNATGIPVTMYASVQSDSRLLINQWVGLRTPALQNLIIDNGVGVGGRVLKTRRPVGVSDYTRANVISHDLDPVIQDEGLHSIVAVPVIVQREVRGVLYVGVHSPVRLGDKVIEEVTMTARVLEQELAINSASRRSDNPRGGVAKQGRMMNGAEWEQIRSTHSKLRMLANRIEQEELRQELEELCDQMVAPVHVKQTTKLSARELDVLSCVALGHTNVEAAEEMGIGAETVKSYLRSVMRKLGAHTRYEAVNAARRIGALP | not soluble
